Consider 6 molecules from PMC9500956, “In Vitro Characterization of the Physical Interactions between the Long Noncoding RNA TERRA and the Telomeric Proteins TRF1 and TRF2”.

The target in one series is GST-A1-50B (human) (UniProt P54274+Q15554). In words: EMSA. Conditions: RNA EMSA: 50 mM HEPES pH 8, 1 mM DTT, 100 mM NaCl, 0.01% BSA, 2% glycerol, 50 ng/uL E. coli tRNA, 0.25 nM RNA, 20 min on ice then 10 min 25 C; dsDNA EMSA: same …. In general terms: Mobility shift assays separate free from complexed probe on a gel.
The next series deals with GST-AP2EAB (human) (UniProt P54274+Q15554). In words: EMSA. Conditions: RNA EMSA: 50 mM HEPES pH 8, 1 mM DTT, 100 mM NaCl, 0.01% BSA, 2% glycerol, 50 ng/uL E. coli tRNA, 0.25 nM RNA, 20 min on ice then 10 min 25 C; dsDNA EMSA: same ….
Another series has as its target GST-TRF1ΔA (human, UniProt P54274 67-439, del1-66). Nature of the series: EMSA; E. coli tRNA; RNA EMSA: 50 mM HEPES pH 8, 1 mM DTT, 100 mM NaCl, 0.01% BSA, 2% glycerol, 50 ng/uL E. coli tRNA, 0.25 nM RNA, 20 min on ice then 10 min 25 C; dsDNA EMSA: same. The settings on record: protein: recombinant, tags: N-terminal GST, chain copies: 2, label: 5'-32P.
In a further series the target is GST-TRF2ΔB (human, UniProt Q15554 87-542, del43-86). The series is described as above. The settings on record: protein: recombinant, tags: N-terminal GST, chain copies: 2, label: 5'-32P.
The next series has as its target T1, GST-B R13-30A (human, UniProt Q15554 43-86, R55A;R59A;R60A;R63A;R67A;R69A;R70A;R72A).
T1 chain: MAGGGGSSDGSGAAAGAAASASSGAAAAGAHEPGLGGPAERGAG
The series is described as above. The settings on record: protein: recombinant; tags: N-terminal GST; label: 5'-32P; G4-forming.

Sequence of GST-TRF2ΔB (Q15554 87-542, stated change not applied): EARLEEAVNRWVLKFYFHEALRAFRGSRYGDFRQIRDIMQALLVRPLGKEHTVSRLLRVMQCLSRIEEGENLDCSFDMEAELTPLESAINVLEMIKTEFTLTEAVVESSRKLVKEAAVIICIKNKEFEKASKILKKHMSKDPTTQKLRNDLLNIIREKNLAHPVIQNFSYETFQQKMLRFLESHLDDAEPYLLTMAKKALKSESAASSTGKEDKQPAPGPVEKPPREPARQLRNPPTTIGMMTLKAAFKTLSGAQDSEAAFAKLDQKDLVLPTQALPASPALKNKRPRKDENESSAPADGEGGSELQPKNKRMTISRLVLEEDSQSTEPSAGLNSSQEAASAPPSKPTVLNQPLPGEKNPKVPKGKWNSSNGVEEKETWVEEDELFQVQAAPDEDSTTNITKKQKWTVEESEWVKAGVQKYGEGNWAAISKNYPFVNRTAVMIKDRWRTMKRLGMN
Sequence of GST-TRF1ΔA (P54274 67-439, stated change not applied): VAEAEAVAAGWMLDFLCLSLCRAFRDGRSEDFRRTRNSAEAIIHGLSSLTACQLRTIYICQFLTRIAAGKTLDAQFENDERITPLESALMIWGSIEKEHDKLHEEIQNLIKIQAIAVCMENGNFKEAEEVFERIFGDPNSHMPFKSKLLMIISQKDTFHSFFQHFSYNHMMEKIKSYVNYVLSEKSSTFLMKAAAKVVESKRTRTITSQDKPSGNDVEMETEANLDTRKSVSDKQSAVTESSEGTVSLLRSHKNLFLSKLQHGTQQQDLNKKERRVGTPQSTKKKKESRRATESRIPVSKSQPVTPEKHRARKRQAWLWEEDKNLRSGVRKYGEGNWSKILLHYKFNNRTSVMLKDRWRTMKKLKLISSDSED
Sequence of GST-AP2EAB (human) (P54274 whole entry, chain 1 of 2): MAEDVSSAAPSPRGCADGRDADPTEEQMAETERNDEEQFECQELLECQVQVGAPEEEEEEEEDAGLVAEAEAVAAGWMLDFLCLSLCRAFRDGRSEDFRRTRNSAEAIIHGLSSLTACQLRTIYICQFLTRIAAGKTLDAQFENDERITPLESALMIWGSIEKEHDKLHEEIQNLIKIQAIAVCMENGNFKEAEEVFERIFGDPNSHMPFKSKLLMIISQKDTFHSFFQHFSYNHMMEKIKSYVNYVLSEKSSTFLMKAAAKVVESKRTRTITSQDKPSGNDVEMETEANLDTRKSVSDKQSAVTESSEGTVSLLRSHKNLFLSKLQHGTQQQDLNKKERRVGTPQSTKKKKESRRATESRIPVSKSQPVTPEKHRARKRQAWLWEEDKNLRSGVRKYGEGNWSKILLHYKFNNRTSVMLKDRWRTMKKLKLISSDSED
Sequence of GST-AP2EAB (human) (Q15554 whole entry, chain 2 of 2): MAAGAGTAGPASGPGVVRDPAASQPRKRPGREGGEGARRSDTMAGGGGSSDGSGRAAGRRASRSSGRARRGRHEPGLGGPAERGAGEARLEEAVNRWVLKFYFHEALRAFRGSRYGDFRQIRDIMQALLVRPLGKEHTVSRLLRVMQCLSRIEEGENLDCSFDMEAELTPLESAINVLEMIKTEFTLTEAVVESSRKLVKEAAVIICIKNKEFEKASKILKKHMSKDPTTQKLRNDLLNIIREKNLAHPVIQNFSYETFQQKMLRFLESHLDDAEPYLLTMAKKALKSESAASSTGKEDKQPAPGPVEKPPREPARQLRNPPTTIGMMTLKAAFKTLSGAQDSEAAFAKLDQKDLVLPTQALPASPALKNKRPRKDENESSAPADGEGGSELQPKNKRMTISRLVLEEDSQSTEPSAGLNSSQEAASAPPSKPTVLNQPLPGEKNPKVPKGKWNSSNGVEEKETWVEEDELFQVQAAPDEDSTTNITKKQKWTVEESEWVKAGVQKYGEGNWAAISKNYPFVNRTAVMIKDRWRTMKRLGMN
Sequence of GST-A1-50B (human) (P54274 whole entry, chain 1 of 2): as the sequence (P54274 whole entry, chain 1 of 2) above
Sequence of GST-A1-50B (human) (Q15554 whole entry, chain 2 of 2): as the sequence (Q15554 whole entry, chain 2 of 2) above

“UUAGGGUUAGGGUUAGGGUUAGGGUUAGGGUUAGGGUUAGGGUUAGGGUUAGGGUUAGGGUUAGGGUUAGGG [TERRA (UUAGGG)12]” showed a binding signal (% of B domain alone) with GST-A1-50B (human) of 60. For the same molecule, the binding signal (% binding regained at 320 nM) with GST-AP2EAB (human) is 80.

B1: MUT3 (AUAGGG)5 (structured_RNA)
RNA: AUAGGGAUAGGGAUAGGGAUAGGGAUAGGG
Turning to B1, the binding result in the series with GST-TRF1ΔA (G4-forming) and with GST-TRF2ΔB (G4-forming) was “binds” throughout.

B2: MUT4 (AAAGGG)5 (structured_RNA)
RNA: AAAGGGAAAGGGAAAGGGAAAGGGAAAGGG
With B2, the binding result with GST-TRF1ΔA (G4-forming) and with GST-TRF2ΔB (G4-forming) was “binds” each time.

B3: TERRA (UUAGGG)5 (structured_RNA)
RNA: UUAGGGUUAGGGUUAGGGUUAGGGUUAGGG
B3: the binding result with GST-B R13-30A is listed as “no binding”; with GST-TRF1ΔA (G4-forming) it was “binds”; with GST-TRF2ΔB (G4-forming), “binds”.

B4: MUT1 (UUACGG)5 (ssRNA)
RNA: UUACGGUUACGGUUACGGUUACGGUUACGG
Regarding B4, the binding result with GST-TRF1ΔA (not G4-forming) and in the series with GST-TRF2ΔB (not G4-forming) was “no binding” in each case.

B5: MUT2 (UUACCG)5 (ssRNA)
RNA: UUACCGUUACCGUUACCGUUACCGUUACCG
On to B5, for which the binding result with GST-TRF1ΔA (not G4-forming) and with GST-TRF2ΔB (not G4-forming) was “no binding” throughout.
